# Measured values published in the nanobody polyreactivity screen of Harvey et al. (2022).
# Test: yeast display, Sf9 membrane polyspecificity reagent, FACS + sequencing; frameworks hold sequencing errors
# How it was run: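 Nanobodies from a synthetic yeast display library (Saccharomyces cerevisiae BJ5465), induced 36–48 hours with galactose, were stained 1 hour at 4 °C with 10% biotinylated, detergent-solubilized Sf9 membrane reagent, enriched on streptavidin microbeads, then FACS-sorted. Anti-HA (expression) and streptavidin (reagent binding) fluorescence set low and high (top ~1%) gates. Polyreactivity labels come from the gate of origin. Genes were colony-PCR amplified, MiSeq 2 × 250 sequenced and filtered by CDR length.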
row,Sequence,polyreactivity (PSR sort gate)
1,EEELVESGGGLVQAGGSLRLSCAASGSTFLVYAMGWYRQAPGKERELVAVITYSTVRTYYADSVKGRFTISRDNAKNTVYLQMNSLKPEDTAVYYCNADIEFAVLGQGMDYWGQGTQVTVSS,low polyreactivity
2,EVQLVESGAGLLQAGGSLRISCAASGITLAYYAMGGYRQAPGTERELVAVINIGVSTDYADSVKGRFTISRDNAKNTVYVQMTSLKPEDTAVYYSAAGWGRRWPQYNYWGQGTQVTVSS,high polyreactivity
3,EVQLVESGGGLVQAGGSLRLSCAASGRTFIWNAMGWYRQAPGKERELVAAITRNGDSTYYADSVKGRFTISRDNAKNTVYLQMNSLKPEDTAVYYCAAYSRVFVYRTVGNYGWMNYWGQGTQVTVSS,high polyreactivity
4,EVQLVETGGGLVQAGGSLRLSCAPSGFNFGVYAMGCYRQEPGKERELFAAISTTVGSTYYADSVKWRFTISRDNEKNTVYLQMTSLKPEDTAVYYCATGWSNCGQGTQVTVSS,low polyreactivity
5,HAQLQDSGGGLVQAGGSLRLSCAASGNISSEYYMGWGRQAPGSGREFVAAIDYGGTTNYADNVKGRFTISRDNAKNTVYLQMNSLRPEDTAVYYCAASCDTIGLFAYWGQGTQVTVIS,high polyreactivity
6,HAQQQESGGGLVQAGGSLRRSCAASGSIFRFSGRGWYRLAPGKERELVASIGFGSITYYADRVKGRFTISRDNANNTVYLQMNSLKPEDTAVYYCAVQVQDESWLDYWGQGTQVTVSC,low polyreactivity
7,HDQHVESGGGLVQAGGSLRLSCAASGRIYGSTMGWYRQAPGKERELVAAITRNGGSTYYADSVKGRFTISRDNSKNTVYLQMNSVKPEDTEVYYCAARNAFGTYYYWGQGTQVNVSS,high polyreactivity
8,HDQLVESGGGLVQAGGSLRLSCAASGFTFYRNAMGWYRQAPGQERELVAAITRGGSTTYADSVKGRFTISRANAKNTVYLQMISLKPDDTAVYYSAKVARADVPGYYKYYYWGQGTQVTVSS,high polyreactivity
9,HVKLVESGGGLVQAGGSLRLSCAASGSIFEPYVMGWYRQAPGKERELVAAIRQTRGSTYYADSVKGRFTISRDNAKNTVYLQMNSLKPEDTAVYYCNAEQNPSGLYDYRGVEGEMGYWGQGTQVTVSS,low polyreactivity
10,HVQHVESGGGLVQAGGSLRLSCAASGFTFFYYTMGWYRQAPGKERELVAAISKGGGSTFYADSVKGRFTISRDNAKNTVYLQMNSLKPEDTAVYYCAASYVRGYDYWGQGTQVTVSS,high polyreactivity
11,HVQHVESGGGLVQAGGSLRLSCADSGNTFSDNAMGLYRQAPGKVRELVAAISTSGGSTYYADSVKGRFTISRDNAKNTVYLQMNSLNPEDTADYYFAAQFTVLWYEYYYWVQGTQVTVSS,high polyreactivity
12,HVQHVESGGGLVQAGGSLRVSCAASGSIFYTNVMGWYRQAPGKERELVARIDSGGSTNYADSVKGRFTISRDNAKNTVYLQMYSLKPEDTAVYYCAADWYIYDYWGQGTQVTVSS,low polyreactivity
13,HVQLEESGGGLVQAGGSLRLSCAASGITFYKYVMGSYRQAPGKERELVAAITYSGGSRYYADSVKGRFTISRDNAKNTVYLPMNSLKPEDSAVYYWNAYYYWYFPYTYDYWGQGTQVTVSS,high polyreactivity
14,HVQLLESGGGLVQAGGSLRLSCAASGFTFRSYAMGWYRQAPGKERELVAAISGSGGSTYYADSVKGRFTISRDNAKNTVYLQMNSLKPEVTAVYYCAARRSKNSALGGRVSIGDYWGQGTQVTVSS,high polyreactivity
15,HVQLLESGGGLVQAGGSLRLSCAASGITFQFYPKGWYRQAPGKERELVAAISYSGGSTYYADSVKGRFTISRDNAKNTVYLQMNSLKAADTAVYYCAAVSYSSRGNYWGQGTQVTVSS,high polyreactivity
16,HVQLQERGGGLVQAGGSLRLSCAASGSIFQATYMGWYRQAPGKEREFVASITYGSITNYADSVKGRFTIGRDNAKDTLYLQMNSLKPEDTAVYYCAVDRHYIPAFHYWGQCTQVTVSS,low polyreactivity
17,HVQLQESGGGLVQACGSLRLSCAASGTIFKVVDMGLYRQSPAKEREFVATIGEGGNTYYADSVKGRFTISRDNAKNTVYLQMNSLKPEDTAVYFYEVVMGTSYRYTYWGQGTHVTVSS,low polyreactivity
18,HVQLQESGGGLVQAGGSLRLSCAASGNISYSRNMGWYRQAPGKERELVAAIDRGAITYYADSVKGRFTISRDNAKNTVYLQRYSLKPEDTAVYYCAAEYHDRWDHRYWGQGTQVTVSS,high polyreactivity
19,HVQLQESGGGLVQAGGSLRLSCAASGSIFQATYMGWYRQAPGKEREFVASITYGSITNYADSVKGRFTIGRDNAKETLYLQMNSLKPEDTAVYYCAVDRHYIPAFHYWGQGTQVTVSS,low polyreactivity
20,HVQLVDSGGGIVQAGGSLRLSCAASGSTFYGNAMGWYRQAPGKEMEFVAAISRGGGSTYYADSVKGRFTISRDNAKNTVYVQMNLLKTEDTADFYCAATRYLHPWYYQYYYCGQGTQVTVSS,low polyreactivity
21,HVQLVDSGGGLVQAGGSLRLSCAASGRTFSHNAMGWYRQAPGKDRELVATITYGAGRTSYADSVKGRFTISRDNAKNTLYLQMNSLKPEDTAVYYCNADYFTYRGGEYRRYEYWGQGTQVTVST,high polyreactivity
22,HVQLVESAGGLVQAGGSLRLSCAASGSTIYGYAMGLYRQAPGKERELVAAITGSGGSTYYADSVKGRFTISRDNAKNTVYLQMNSLKPEDTAVYYCNAVRRYGLEYNYWGQGTQVTVSS,high polyreactivity
23,HVQLVESGGGLVQAGGCLRLSCAASGRICIFYAMGWYRQAPGKERELVAAISSGPSTTYADSVKGRFTISRDNAKNTVYLQMNSLNPEDTAVYSCARRDGTTQALFGYDYWGQGTQVTVSS,low polyreactivity
24,HVQLVESGGGLVQAGGSLPLSCAASGLTFYYNAMGWYRQAPGNERELVAAISFSGGRTYYADSVKGRFTISRDNAKNTVYLQMNSLKPEDTAVYYCNTVGKQHLDYDYWGQGTQVTVSS,high polyreactivity
25,HVQLVESGGGLVQAGGSLRLICAASGRSFSPYAMGWYRLAPGKERELVAAITNGDSTNYADSVKGRFTISRDNAKNTVYLLMNSLKPEDTAVYYCNAAAEISSFDYDYWGQGTQVTVSS,low polyreactivity
26,HVQLVESGGGLVQAGGSLRLSCAASGFIFVSYAMGWYRQAPGKERELVAAITWSTTSTYYADSVKGRFTISRDNAKNTVYLQMNSLKPEDTAVYYCAKYNFQYKHDYWGQGTQVTVSS,low polyreactivity
27,HVQLVESGGGLVQAGGSLRLSCAASGFIFWRYAMGWYRQAPGKERELVAAISVSGTRTYYADSVKGRFTISRDNAKNTVYLQMNSLKPEDTAVYYCAADRYYGEDYWGQGTQVTVSS,high polyreactivity
28,HVQLVESGGGLVQAGGSLRLSCAASGFIGIYAMGWYRQAPGKERELVAAITTSGGRTYYADSVKGRFTISRDNAKNTVYLQMNSLKPEDTAVYYCAAPWRLFSLYDYWGQGTQVTVSS,low polyreactivity
29,HVQLVESGGGLVQAGGSLRLSCAASGFTFDAYAMGWYRQAPGKERELVAAISFSGGSTYYADSVKGRFTISRDNAKNTVYLQMNSLKPEDTAVYYCAAYSYTRTYGRHNYWGQGTQVTVSS,high polyreactivity
30,HVQLVESGGGLVQAGGSLRLSCAASGITLTIYVMGGYRQAPGKERELVAAISTSGGSTYYADSVKGRFTISRDNAKNTDYLQMNSLKPEDTAVYYCNATPLRRYYGRYLMDYWGQGTQVTVSS,high polyreactivity
